Patent US7211424B1, “Mammalian Subtilisin/kexin isozyme SKI-1: a proprotein convertase with a unique cleavage specificity” (Institut de Recherches Cliniques de Montreal, priority 1999, dated 2007)

Legend:
[1] = biological target: T1, peptide I, hproBDNF(50-63)
T1 chain: KAGSRGLTSLADTF

[2] = biological target: T2, peptide II, hSREBP-2(504-530)
T2 chain: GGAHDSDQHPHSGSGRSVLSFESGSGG

[3] = biological target: T3, peptide III, hSKI-1(174-191)
T3 chain: WHATGRHSSRRLLRAIPR

[4] = biological target: T4, peptide IV, hSKI-1 (174-188+LE)
T4 chain: WHATGRHSSRRLLRALE

[5] = biological target: T5, peptide IX, hSKI-1 (128-142)
T5 chain: PQRKVFRSLKYAESD

[6] = biological target: T6, peptide V, hSKI-1 (182-188+LE)
T6 chain: SRRLLRALE

[7] = biological target: T7, peptide VI, hSKI-1 (156-172)
T7 chain: WQSSRPLRRASLSLGSG

[8] = biological target: T8, peptide VII, hSKI-1 (187-201)
T8 chain: RAIPRQVAQTLQADV

[9] = biological target: T9, peptide VIII, hSKI-1 (128-136)
T9 chain: PQRKVFRSL

[10] = biological target: soya bean trypsin inhibitor
[11] = biological target: T10, peptide (iv) hSKI-1 (181-188+Glu)
T10 chain: SSRRLLRAIE

[12] = biological target: T11, peptide (x) SREBP-2 10 mer
T11 chain: SGSGRSVLSFES

[13] = biological target: T12, peptide X, Q-hSKI-1 (132-142): Abz-VFRSLKYAESD-Y(NO2)-A
T12 chain: XVFRSLKYAESDXA

[14] = biological target: T13, peptide XI, Q-hSKI-1 (134-142): Abz-RSLKYAESD-Y(NO2)-A
T13 chain: XRSLKYAESDXA

[15] = substrate: CC(C)C[C@H](NC(=O)[C@H](CO)NC(=O)[C@H](CCCNC(=N)N)NC(=O)[C@H](Cc1ccccc1)NC(=O)[C@@H](NC(=O)c1ccccc1N)C(C)C)C(=O)N[C@@H](CCCCN)C(=O)N[C@@H](Cc1ccc(O)cc1)C(=O)N[C@@H](C)C(=O)N[C@@H](CCC(=O)O)C(=O)N[C@@H](CO)C(=O)N[C@@H](CC(=O)O)C(=O)N[C@@H](Cc1ccc(O)c([N+](=O)[O-])c1)C(=O)N[C@@H](C)C(N)=O; assay: Hydrolysis of quenched fluorogenic substrates by shed-hSKI-1; assay type: biochemical, human; details: other: shed-hSKI-1; averages of duplicate assays; pH 6.5; 37.0 °C
Procedure: (§1) For digestions, each peptide was typically reacted at 37° C. with 10 μl of the concentrated enzyme preparation in a buffer consisting of 50 mM HEPES (N-2-Hydroxyethyl piperazine-N′-2 EthaneSulfonic acid) (ICN Biomedicals Inc), 50 mM MES (2-[N-Morpholino] EthaneSulfonic acid) (Sigma Chem Co.), and 3 mM Ca^2+-acetate (pH 6.5). The digestion products were separated by RP-HPLC on a Beckman 5 μm Ultrasphere C18 column (0.2×25 cm) and eluted with a 1%/min linear gradient of aqueous 0.1% TFA/CH3CN ([…]) at a flow rate of 1 ml/min. The collected peptides were characterized by mass spectrometry and amino acid composition, which was also used to quantitate the amount of various substrates and products. The digestions of the quenched fluorogenic peptides were analyzed by RP-HPLC using a dual UV (210 nm) and fluorescence (excitation and emission wavelengths of 320 and 420 nm, respectively) detector (Rainin).
(§2) Km(app), Vmax(app) and Ki(app) determinations—Following digestion reactions with increasing substrate concentrations, the products were separated by RP-HPLC. The rate of substrate hydrolysis was obtained from the integrated peak areas of the chromatograms. Km(app) and Vmax(app) values were estimated using nonlinear regression analysis (Enzfitter software; Elsevier Biosoft, Cambridge, UK) of plots of the hydrolysis rate vs the substrate concentration. […] The Ki(app) values were estimated from Dixon plots as described (16). For the two quenched peptides, kinetic parameters were determined as described (17).

[16] = substrate: CC(C)C[C@H](NC(=O)[C@H](CO)NC(=O)[C@H](CCCNC(=N)N)NC(=O)c1ccccc1N)C(=O)N[C@@H](CCCCN)C(=O)N[C@@H](Cc1ccc(O)cc1)C(=O)N[C@@H](C)C(=O)N[C@@H](CCC(=O)O)C(=O)N[C@@H](CO)C(=O)N[C@@H](CC(=O)O)C(=O)N[C@@H](Cc1ccc(O)c([N+](=O)[O-])c1)C(=O)N[C@@H](C)C(N)=O; assay: as above; assay type: biochemical, human; details: other: shed-hSKI-1; averages of duplicate assays; pH 6.5; 37.0 °C
Procedure: as §1, §2

B1: BTMD-SKI-1 (protein)
chain: RAIPRQVAQTLQADVLWQMGYTGANVRVAVFDTGLSEKHPHFKNVKERTNWTNERTLDDGLGHGTFVAGVIASMRECQGFAPDAELHIFRVFTNNQVSYTSWFLDAFNYAILKKIDVLNLSIGGPDFMDHPFVDKVWELTANNVIMVSAIGNDGPLYGTLNNPADQMDVIGVGGIDFEDNIARFSSRGMTTWELPGGYGRMKPDIVTYGAGVRGSGVKGGCRALSGTSVASPVVAGAVTLLVSTVQKRELVNPASMKQALIASARRLPGVNMFEQGHGKLDLLRAYQILNSYKPQASLSPSYIDLTECPYMWPYCSQPIYYGGMPTVVNVTILNGMGVTGRIVDKPDWQPYLPQNGDNIEVAFSYSSVLWPWSGYLAISISVTKKAASWEGIAQGHVMITVASPAETESKNGAEQTSTVKLPIKVKIIPTPPRSKRVLWDQYHNLRYPPGYFPRDNLRMKNDPLDWNGDHIHTNFRDMYQHLRSMGYFVEVLGAPFTCFDASQYGTLLMVDSEEEYFPEEIAKLRRDVDNGLSLVIFSDWYNTSVMRKVKFYDENTRQWWMPDTGGANIPALNELLSVWNMGFSDGLYEGEFTLANHDMYYASGCSIAKFPEDGVVITQTFKDQGLEVLKQETAVVENVPILGLYQIPAEGGGRIVLYGDSNCLDDSHRQKDCFWLLDALLQYTSYGVTPPSLSHSGNRQRPPSGAGSVTPERMEGNHLHRYSKVLEAHLGDPKPRPLPACPRLSWAKPQPLNETAPSNLWKHQKLLSIDLDKVVLPNFRSNRPQVRPLSPGESGAWDIPGGIMPGRYNQEHHHHHH
- Hydrolysis of SREBP-2 peptide (% of control) at 0.01 mM cystatin (cystatin): 100 % of control
- Km(app) [1]: 169 µM
- Vmax(app) [1]: 0.4 nmol/h
- Vmax(app)/Km(app) [1]: 0.002 h^-1L^-1
- cleavage of synthetic peptide (RP-HPLC, MALDI-TOF) [1]: The expected cleavages were confirmed and did not occur using WT-/empty vector-derived media
- Km(app) [2]: 124 µM
- Vmax(app) [2]: 0.5 nmol/h
- Vmax(app)/Km(app) [2]: 0.004 h^-1L^-1
- cleavage of synthetic peptide (RP-HPLC, MALDI-TOF) [2]: The expected cleavages were confirmed and did not occur using WT-/empty vector-derived media
- cleavage of synthetic peptide (RP-HPLC, mass spectrometry) [3]: the only one with detectable cleavage by SKI-1-containing concentrated medium ... was peptide III
- Km(app) [4]: 17 µM
- Vmax(app) [4]: 0.4 nmol/h
- Vmax(app)/Km(app) [4]: 0.023 h^-1L^-1
- Vmax(app)/Km(app) relative to peptides I and II [4]: 5-10-fold higher than those obtained with peptides I and II
- cleavage of synthetic peptide [4]: this change significantly improved the processing of these peptides
- cleavage of synthetic peptide at K137↓ [5]: the PQRKVFRSLK^137↓YAESD (SEQ. ID. NO. 45) cleavage was only seen in SKI-1-containing medium
- Km(app) [6]: 109 µM
- Vmax(app) [6]: 1.1 nmol/h
- Vmax(app)/Km(app) [6]: 0.01 h^-1L^-1
- catalytic efficiency relative to peptide IV [6]: caused a 4-fold reduction in catalytic efficiency
- cleavage of synthetic peptide [6]: this change significantly improved the processing of these peptides
- difference in Vmax(app)/Km(app) between peptides IV and V [6]: 2 fold
- cleavage of synthetic peptide [7]: ^1No cleavage detected even with a 10-fold excess of enzyme.
- cleavage of synthetic peptide [8]: ^1No cleavage detected even with a 10-fold excess of enzyme.
- cleavage of synthetic peptide [9]: ^2Cleavage detected but not attributable to SKI-1.
- Hydrolysis of SREBP-2 peptide (% of control) at 0.5 mg/ml SBTI [10]: 100 % of control

B2: shed-hSKI-1 (Homo sapiens) (protein)
chain: RAIPRQVAQTLQADVLWQMGYTGANVRVAVFDTGLSEKHPHFKNVKERTNWTNERTLDDGLGHGTFVAGVIASMRECQGFAPDAELHIFRVFTNNQVSYTSWFLDAFNYAILKKIDVLNLSIGGPDFMDHPFVDKVWELTANNVIMVSAIGNDGPLYGTLNNPADQMDVIGVGGIDFEDNIARFSSRGMTTWELPGGYGRMKPDIVTYGAGVRGSGVKGGCRALSGTSVASPVVAGAVTLLVSTVQKRELVNPASMKQALIASARRLPGVNMFEQGHGKLDLLRAYQILNSYKPQASLSPSYIDLTECPYMWPYCSQPIYYGGMPTVVNVTILNGMGVTGRIVDKPDWQPYLPQNGDNIEVAFSYSSVLWPWSGYLAISISVTKKAASWEGIAQGHVMITVASPAETESKNGAEQTSTVKLPIKVKIIPTPPRSKRVLWDQYHNLRYPPGYFPRDNLRMKNDPLDWNGDHIHTNFRDMYQHLRSMGYFVEVLGAPFTCFDASQYGTLLMVDSEEEYFPEEIAKLRRDVDNGLSLVIFSDWYNTSVMRKVKFYDENTRQWWMPDTGGANIPALNELLSVWNMGFSDGLYEGEFTLANHDMYYASGCSIAKFPEDGVVITQTFKDQGLEVLKQETAVVENVPILGLYQIPAEGGGRIVLYGDSNCLDDSHRQKDCFWLLDALLQYTSYGVTPPSLSHSGNRQRPPSGAGSVTPERMEGNHLHRYSKVLEAHLGDPKPRPLPACPRLSWAKPQPLNETAPSNLWKHQKLLSIDLDKVVLPNFRSNRPQVRPLSPGESGAWDIPGGIMPGRYNQEV
notes: SKI-1 is further processed to remove the transmembrane domain that keeps it integrated in the ER membrane, which generates a SKI-1 soluble form; made in house; host or cells: HK293 cells stably transfected with full-length hSKI-1 in pcDNA3; shed enzyme in the medium
- cleavage of synthetic peptide (iv): efficiently cleaved [11]: only the peptides (iii), (iv), (vii), (viii) (ix) and (x) are efficiently cleaved by the recombinant SKI-1
- cleavage of synthetic peptide (x): efficiently cleaved [12]: only the peptides (iii), (iv), (vii), (viii) (ix) and (x) are efficiently cleaved by the recombinant SKI-1
- cleavage of synthetic peptide (viii): efficiently cleaved [1]: only the peptides (iii), (iv), (vii), (viii) (ix) and (x) are efficiently cleaved by the recombinant SKI-1
- cleavage of synthetic peptide (ix): efficiently cleaved [2]: only the peptides (iii), (iv), (vii), (viii) (ix) and (x) are efficiently cleaved by the recombinant SKI-1
- cleavage of synthetic peptide (ii): not efficiently cleaved [3]: only the peptides (iii), (iv), (vii), (viii) (ix) and (x) are efficiently cleaved by the recombinant SKI-1
- cleavage of synthetic peptide (iii): efficiently cleaved [4]: only the peptides (iii), (iv), (vii), (viii) (ix) and (x) are efficiently cleaved by the recombinant SKI-1
- cleavage of synthetic peptide (vii): efficiently cleaved [5]: only the peptides (iii), (iv), (vii), (viii) (ix) and (x) are efficiently cleaved by the recombinant SKI-1
- cleavage of synthetic peptide (i): not efficiently cleaved [7]: only the peptides (iii), (iv), (vii), (viii) (ix) and (x) are efficiently cleaved by the recombinant SKI-1
- cleavage of synthetic peptide (v): not efficiently cleaved [8]: only the peptides (iii), (iv), (vii), (viii) (ix) and (x) are efficiently cleaved by the recombinant SKI-1
- cleavage of synthetic peptide (vi): not efficiently cleaved [9]: only the peptides (iii), (iv), (vii), (viii) (ix) and (x) are efficiently cleaved by the recombinant SKI-1
- kinetic parameters (Vmax/Km) relative to quenched peptide (b) [13]: this peptide is 6-fold more efficient that the nearest candidate quenched peptide (b)
- cleavage of quenched fluorogenic peptide (HPLC with UV and fluorescence detection) [14]: clearly revealed a single site of cleavage in peptides (a) and (b)
- Km [15]: 31.3 µM
- Vmax [15]: 0.567 µmol/min
- Km [16]: 8.7 µM
- Vmax [16]: 0.948 µmol/min
